Non-standard residues stand in square brackets, D forms with d. Primed or numbered codes have the meaning given here. No end group written: not given here. *: point of attachment. PEG8′ = polyethylene glycol linker with an average of 8 ethylene glycol units; fluorPhe = fluorinated phenylalanine; Palmitoyl = CCCCCCCCCCCCCCCC(=O)*; Tic = O=C(O)[C@@H]1Cc2ccccc2CN1; Aad = N[C@@H](CCCC(=O)O)C(=O)O; Nle = CCCC[C@H](N)C(=O)O; Nva = CCC[C@H](N)C(=O)O

The chains are these.
B1: OK-103 (peptide)
peptide: {Palmitoyl-PEG8′}-AAYF[Nle]PSQFA[Tic][dA]
B2: OK-107 (peptide)
peptide: {Palmitoyl-PEG8′}-AAYF[Nle]PSQY[dA]F[dA]
B3: OK-116 (peptide)
peptide: {Palmitoyl-PEG8′}-GGFF[Nle]PSQFA[Tic][dS]
B4: OK-105 (peptide)
peptide: {Palmitoyl-PEG8′}-AGYF[Nle]PTNFA[Tic][dA]
B5: OK-101 (peptide)
peptide: {Palmitoyl-PEG8′}-GG[dY]FLP[dS]QF[dA][Tic]S
B6: OK-106 (peptide)
peptide: {Palmitoyl-PEG8′}-AAFY[Nle]PTQFA[Tic][dA]
B7: OK-115 (peptide)
peptide: {Palmitoyl-PEG8′}-AGFF[Nle]PSQFA[Tic][dA]
B8: OK-113 (peptide)
peptide: {Palmitoyl-PEG8′}-[Nva]G[dY]F[Nle]P[dS]QF[dA][Tic][dA]
B9: OK-112 (peptide)
peptide: {Palmitoyl-PEG8′}-[dA]G[dY]F[Nle]P[dS]Q[fluorPhe][dA][Tic][dA]
modifications: also: fluorPhe9: fluorine position not given here
B10: OK-104 (peptide)
peptide: {Palmitoyl-PEG8′}-AAFY[Nle]PSQYA[Tic][dA]
B11: OK-111 (peptide)
peptide: {Palmitoyl-PEG8′}-[dA]G[dY]F[Nle]P[dS][Aad]F[dA][Tic][dA]
B12: OK-109 (peptide)
peptide: {Palmitoyl-PEG8′}-AG[dY]F[Nle]P[dS][Aad]FA[Tic][dA]
B13: OK-102 (peptide)
peptide: {Palmitoyl-PEG8′}-[dA]G[dY]F[Nle]P[dS]QF[dA][Tic][dA]
B14: OK-114 (peptide)
peptide: {Palmitoyl-PEG8′}-AG[dY]F[Nle]P[dS]QFA[Tic][dS]

The assay addresses T1, human Chemokine-like receptor 1, CMKLR1 (ProLink (PK) tagged GPCR in PathHunter β-Arrestin cells) (human) (UniProt Q99788).
T1 sequence: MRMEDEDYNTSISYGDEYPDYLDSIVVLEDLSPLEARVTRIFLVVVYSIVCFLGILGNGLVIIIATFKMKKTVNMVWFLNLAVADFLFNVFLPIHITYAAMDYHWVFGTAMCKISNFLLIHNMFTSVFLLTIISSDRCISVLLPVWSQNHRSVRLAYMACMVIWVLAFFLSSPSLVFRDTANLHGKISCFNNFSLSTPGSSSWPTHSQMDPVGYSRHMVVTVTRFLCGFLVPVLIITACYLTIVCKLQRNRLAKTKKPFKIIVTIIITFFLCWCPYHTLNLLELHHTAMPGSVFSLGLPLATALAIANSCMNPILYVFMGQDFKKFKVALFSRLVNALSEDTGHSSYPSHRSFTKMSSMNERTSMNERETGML
In the case of B1, the EC50, PathHunter β-Arrestin recruitment assay, agonist format is 43 nM. To B2 belongs 1710 nM. With B3 the figure was 63.9 nM.

B4 registered an EC50, PathHunter β-Arrestin recruitment assay, agonist format of 203 nM. B5 registered an EC50, PathHunter β-Arrestin recruitment assay, agonist format of 2.6 nM.

Consider B6, for which the EC50, PathHunter β-Arrestin recruitment assay, agonist format was determined as 32.5 nM.

Molecule B7 yielded an EC50, PathHunter β-Arrestin recruitment assay, agonist format of 12.4 nM. Turning to B8, the EC50, PathHunter β-Arrestin recruitment assay, agonist format was under 0.5 nM. The molecule B9 returned an EC50, PathHunter β-Arrestin recruitment assay, agonist format of 1.4 nM. To B10 belongs 2.6 nM; to B11, 15 nM; to B12, under 0.5 nM.

As to B13, the EC50, PathHunter β-Arrestin recruitment assay, agonist format stood at 2.3 nM. To B14 belongs under 0.5 nM.

(Values after US20220267377A1.)
